Data on eight molecules can be found in patent US20210230248A1, “Multivalent pharmacophores for high avidity and overexpressed-target specific binding and uses thereof” (priority 2020, published 2021).

Experiment [1] addresses T1, CD47 overexpressing Jurkat cells (Homo sapiens, UniProt Q08722).
T1 construct: endogenous in cells; host or cells: Jurkat cells
Kind of experiment: Competitive binding assay on CD47 overexpressing Jurkat cells. The conditions noted are these: for IC50: against FITC-conjugated anti-CD47 B6H12.2 at ~33.3 nM, 3 h on ice; for increase of avidity compared to SIRPα monomer: ratio of IC50 values. As for the experimental part: This assay is to measure the binding avidity of multivalent PEG-SIRPα IgV pharmacophores to CD47 overexpressing Jurkat cells by competing against FITC-conjugated CD47 blocking antibody, and to compare the avidity to the affinity of wide-type SIRPα ectodomain.
FITC-conjugated mouse anti-human CD47 monoclonal antibody (Clone B6H12.2, Invitrogen) at the final concentration of 0.5 μg/100 μL (˜33.3 nM) was mixed with titrated concentration (from 0.04 nM to 10.5 μM in Stain Buffer) of SIRPα monomer (Acro Biosystems), 4-arm PEG-2K SIRPα IgV and 6-arm PEG-3.4K SIRPα IgV, both wide-type and Q67R mutant forms. The mixture was added into Jurkat cells (500,000 cells in 100 μL, final density). After incubation on ice for 3 h with occasional mixing, the cells were washed to remove the unbound reagents. The fluorescence intensity of FITC was quantified by flow cytometry. The increase of the binding activity for multivalent PEG-SIRPα IgV pharmacophores compared to SIRPα monomer can be calculated.

Experiment [2] deals with T2, human red blood cells (RBCs) (Homo sapiens, UniProt Q08722).
T2 construct: from tissue; host or cells: red blood cells from human whole blood of healthy donors
T2 sequence (Q08722 19-323): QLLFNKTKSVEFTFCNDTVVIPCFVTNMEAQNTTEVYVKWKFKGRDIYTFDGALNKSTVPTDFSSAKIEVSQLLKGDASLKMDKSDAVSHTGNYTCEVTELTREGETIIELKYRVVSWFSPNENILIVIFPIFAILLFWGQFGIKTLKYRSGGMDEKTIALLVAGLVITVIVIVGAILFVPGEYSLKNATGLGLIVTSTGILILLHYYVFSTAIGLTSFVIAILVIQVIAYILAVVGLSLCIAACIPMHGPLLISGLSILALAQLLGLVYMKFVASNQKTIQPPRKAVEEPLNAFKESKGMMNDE
Kind of experiment: Competitive binding assay on human red blood cells. The conditions noted are these: either wide-type or mutant SIRPα IgV; antibody at ~33.3 nM; titration up to 200 nM. Here is the method:
To assess the risks from binding of multivalent PEG-SIRPα IgV pharmacophores to normal RBCs and subsequent anemia as has been reported for many CD47 targeting agents, a similar competitive binding assay as (4) above is conducted using RBCs as the binding targets.
Human whole blood from healthy donors was drawn into sodium heparin tube. The blood was washed 3 times with PBS and diluted in Stain Buffer (0.5×10^6 RBCs in 100 μL, final density). The competitive binding was performed by incubating RBCs with FITC-conjugated CD47 blocking antibody (Clone B6H12.2, Invitrogen) at the final concentration of 0.5 μg/100 μL (˜33.3 nM) and titrated concentration of 4-arm, or 6-arm PEG-SIRPα IgV as described above, or an unconjugated CD47 blocking antibody (B6H12.2, Invitrogen). A mouse isotype IgG1 was used as a negative control. RBCs were incubated with the reagents on ice for 3 h, mixing occasionally. After washing, the fluorescence intensity of FITC on RBCs was quantified by flow cytometry.

In experiment [3] the target is T3, uPAR on cells (uPAR overexpressing Hela, HT-1080, H1299, SW480 and PC3 cells) (human, UniProt Q03405 23-305).
T3 construct: whole, on cells; also called CD87; overexpressed uPAR
T3 sequence (Q03405 23-305): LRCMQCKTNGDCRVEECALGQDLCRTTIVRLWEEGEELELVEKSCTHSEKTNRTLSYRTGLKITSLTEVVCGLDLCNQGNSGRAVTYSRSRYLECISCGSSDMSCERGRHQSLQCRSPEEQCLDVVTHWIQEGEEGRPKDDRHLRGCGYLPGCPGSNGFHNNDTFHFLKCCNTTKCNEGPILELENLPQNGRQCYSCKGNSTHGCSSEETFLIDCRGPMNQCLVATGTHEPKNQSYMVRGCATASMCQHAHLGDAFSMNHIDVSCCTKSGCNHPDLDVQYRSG
Kind of experiment: competitive flow cytometry on uPAR overexpressing Hela cells against PE-VIM5 at ~33.33 nM. Here is the method: Hela cells were detached from culture flasks by trypsin/EDTA, resuspended in complete culture medium in a 50 mL conical tube, and incubated for 1 h at 37° C. in 5% CO₂ incubator to allow receptor recovery. […] The mixture was added into Hela cells (500,000 cells in 100 μL; final density). After incubation on ice for 3 h with occasional mixing, the cells were washed to remove the unbound test reagents.

Where no end group is shown, it is not given here.

T1 sequence (Q08722 19-323): as the sequence (Q08722 19-323) above

B1: wide-type 4-arm PEG-SIRPα IgV: 4-arm PEG-2K conjugated with wide-type SIRPα IgV-like domain (conjugate)
chain: EEELQVIQPDKSVLVAAGETATLRCTATSLIPVGPIQWFRGAGPGRELIYNQKEGHFPRVTTVSDLTKRNNMDFSIRIGNITPADAGTYYCVKFRKGSPDDVEFKSGAGTELSVRA
Consider B1, for which, in experiment [1], the IC50 amounted to 8.12 nM and the “increase of avidity compared to SIRPα monomer” value is reported as “about 995 folds”.

B2: mutant 6-arm PEG-SIRPα IgV: 6-arm PEG-3.4K conjugated with Q67R mutant SIRPα IgV-like domain (conjugate)
chain: EEELQVIQPDKSVLVAAGETATLRCTATSLIPVGPIRWFRGAGPGRELIYNQKEGHFPRVTTVSDLTKRNNMDFSIRIGNITPADAGTYYCVKFRKGSPDDVEFKSGAGTELSVRA
As for B2, the IC50 in experiment [1] is 1.06 nM.

B3: 6-arm PEG-SIRPα IgV: 6 units of SIRPα IgV-like domain conjugated to 6-arm PEG-3.4K; wide-type or Q67R mutant not specified (conjugate)
chain: EEELQVIQPDKSVLVAAGETATLRCTATSLIPVGPIQWFRGAGPGRELIYNQKEGHFPRVTTVSDLTKRNNMDFSIRIGNITPADAGTYYCVKFRKGSPDDVEFKSGAGTELSVRA
B3: the “competitive binding to RBCs against FITC-conjugated CD47 blocking antibody” value in experiment [2] is recorded as “did not compete”.

B4: mutant 4-arm PEG-SIRPα IgV: 4-arm PEG-2K conjugated with Q67R mutant SIRPα IgV-like domain (conjugate)
chain: EEELQVIQPDKSVLVAAGETATLRCTATSLIPVGPIRWFRGAGPGRELIYNQKEGHFPRVTTVSDLTKRNNMDFSIRIGNITPADAGTYYCVKFRKGSPDDVEFKSGAGTELSVRA
As for B4, in experiment [1], the IC50 amounted to 10.9 nM.

B5: wide-type 6-arm PEG-SIRPα IgV: 6-arm PEG-3.4K conjugated with wide-type SIRPα IgV-like domain (conjugate)
chain: EEELQVIQPDKSVLVAAGETATLRCTATSLIPVGPIQWFRGAGPGRELIYNQKEGHFPRVTTVSDLTKRNNMDFSIRIGNITPADAGTYYCVKFRKGSPDDVEFKSGAGTELSVRA
Take B5: in experiment [1], the IC50 was 0.723 nM and the “increase of avidity compared to SIRPα monomer” value is ~11,174 folds.

B6: 4-arm PEG-SIRPα IgV: 4 units of SIRPα IgV-like domain conjugated to 4-arm PEG-2K; wide-type or Q67R mutant not specified (conjugate)
chain: EEELQVIQPDKSVLVAAGETATLRCTATSLIPVGPIQWFRGAGPGRELIYNQKEGHFPRVTTVSDLTKRNNMDFSIRIGNITPADAGTYYCVKFRKGSPDDVEFKSGAGTELSVRA
With B6, the “competitive binding to RBCs against FITC-conjugated CD47 blocking antibody” value in experiment [2] is recorded as “did not compete”.

B7: 4-arm PEG-GFD (designed binder)
chain: VPSNCDCLNGGTCVSNKYFSNIHWCNCPKKFGGQHCEIDKSKT
modifications: not fully specified (C-terminus); ends and bridges not checked; also: four GFD units on 4-arm PEG-2K
notes: Four GFD units on 4-arm PEG-2K; Expressed in E. coli; also called tetravalent PEG-GFD pharmacophore; 4-arm PEG growth factor-like domain of uPA
Regarding B7, the IC50 in experiment [3] worked out at 1.14 nM.

B8: 6-arm PEG-GFD (designed binder)
chain: VPSNCDCLNGGTCVSNKYFSNIHWCNCPKKFGGQHCEIDKSKT
modifications: not fully specified (C-terminus); ends and bridges not checked; also: six GFD units on 6-arm PEG-3.4K
notes: Six GFD units on 6-arm PEG-3.4K; also called hexavalent PEG-GFD pharmacophore; 6-arm PEG growth factor-like domain of uPA
B8 gave an IC50 in experiment [3] of 0.412 nM.
